Assay results: patent US20130052638, “Methods for detecting DNA-binding proteins” (Agency for Science, Technology and Research, published 2013)

B1: wtERE competitor (free) (dsDNA)
DNA 1: GTCCAAAGTCAGGTCACAGTGACCTGATCAAAGT
DNA 2: ACTTTGATCAGGTCACTGTGACCTGACTTTGGAC
B2: scrDNA competitor (free) (dsDNA)
DNA 1: GTCCAAAGTCAATCGCCAGCACGATGATCAAAGT
DNA 2: ACTTTGATCATCGTGCTGGCGATTGACTTTGGAC

Assays:
[1] = molecular target: T1, Estrogen receptor beta (ERβ) (UniProt Q92731 Q92731:1-530); experiment: competition; free competitor at 4:1 over ERβ, 360 nM ERβ, 56 mM KCl, 5 min; strong competitor; conditions: chain copies: 2
T1 sequence (Q92731 whole entry, one chain of several): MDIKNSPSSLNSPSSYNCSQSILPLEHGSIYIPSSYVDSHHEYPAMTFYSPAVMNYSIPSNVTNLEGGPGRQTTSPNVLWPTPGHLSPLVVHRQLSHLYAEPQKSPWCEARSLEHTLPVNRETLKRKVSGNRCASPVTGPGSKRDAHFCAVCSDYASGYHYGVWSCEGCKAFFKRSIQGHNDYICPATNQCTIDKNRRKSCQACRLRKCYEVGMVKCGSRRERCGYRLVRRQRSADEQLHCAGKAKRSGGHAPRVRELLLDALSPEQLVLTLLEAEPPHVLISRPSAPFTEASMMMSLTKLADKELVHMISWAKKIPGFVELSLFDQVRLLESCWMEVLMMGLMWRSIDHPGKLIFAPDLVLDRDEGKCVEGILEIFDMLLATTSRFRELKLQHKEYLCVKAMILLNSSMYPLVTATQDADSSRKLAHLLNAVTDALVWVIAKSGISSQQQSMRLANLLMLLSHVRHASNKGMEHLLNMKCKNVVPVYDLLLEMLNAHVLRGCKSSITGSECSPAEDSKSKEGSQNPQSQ
Experimental: (§1) In this study, excess unmodified DNA competitor (i.e., wtERE and scrDNA, are used as strong and weak competitors, respectively) was pre-incubated with the ERβ at room temperature for 20 minutes to allow for complex formation (molar ratio of ERβ:dsDNA is 1:4), followed by the addition to the complementary mixture of v1-v2-AuNPs in 56 mM KCl, with final ERβ concentration of 360 nM. In the presence of strong competitor (wtERE), limited amount of ERβ bound to the ERE anchored on the AuNPs surface, leading to extensive particle aggregation in salt solution. […]
(§2) The aggregation state of the AuNPs was quantified using UV-Vis absorption spectrum as indicated by the shift of LSPR peak at 526 nm wavelength to a longer wavelength (e.g. 650 nm). The UV-Vis absorbance ratio at 650 nm to that at 526 nm, i.e., A650/A526 is indicative of the particle aggregation degree where a higher ratio is directly related to a larger extent of aggregation. In this study, the deviation percentage (i.e., [(X−Y)/Y]*100%) was calculated based on the difference in aggregation ratio of AuNP samples (measure as A650/A526) with competitors (denoted as X) relative to that without competitor (denoted as Y) at 5 minutes after mixing in the 56 mM KCl-containing protein binding buffer. A 9.0% of deviation was recorded for the scrambled DNA sequence (scrDNA). […]

[2] = molecular target: T1, Estrogen receptor beta (ERβ); experiment: competition; free competitor at 4:1 over ERβ, 360 nM ERβ, 56 mM KCl, 5 min; attributed to non-specific binding; conditions: chain copies: 2
Experimental: as §1, §2

Binder	binding signal [1]	binding signal [2]
B1	35 % deviation of aggregation ratio	–
B2	–	9 % deviation of aggregation ratio
